# According to the supplement of paper PMC7877785:
# ± gives the uncertainty stated by the source.
# Assay: self-splicing fitness, log relative to wild type (ln ratio); higher = more splicing; Tetrahymena group I intron in knt gene, E. coli kanamycin selection, DiMSum; sequences stand for … in CUCUCU…GGAGGGAAAAGUUAUCAGGCAUGCACCUGGUAGCUAGUCUUUAAACCAAUAGAUUGCAUCGGUUUAAAAGGCAAGACCGUCAAAUUGCGGGAAAGGGGUCAACAGCCGUUCAGUACCAAGUCUCAGGGGAAACUUUGAGAUGGCCUUGCAAAGGGUAUGGUAAUAAGCUGACGGACAUGGUCCUAACCACGCAGCCAAGUCCUAAGUCAACAGAUCUUCUGUUGAUAUGGAUGCAGUUCACAGACUAAAUGUCGGUCGGGGAAGAUGUAUUCUUCUCAUAAGAUAUAGUCGGACCUCUCCUUAAUGGGAGCUAGCGGAUGAAGUGAUGCAACACUGGAGCCGCUGGGAACUAAUUUGUAUGCGAAAGUAUAUUGAUUAGUUUUGGAGUACUCGUGGUCG
# How it was run: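 A randomised library covering all eight P1ex-region intron nucleotides was built with the intron in the knt kanamycin-resistance gene on pET-22b(+) and held in E. coli BL21(DE3). Cells were grown overnight at 37°C or 30°C on LB agar, with or without 25 μg/mL kanamycin, plus 100 μg/mL carbenicillin, 50 μM IPTG and 0.2% rhamnose, and pooled colonies were amplicon-sequenced on an Illumina HiSeq 2500. DiMSum fitness is the error-weighted combination of wild-type-normalised replicate fold changes, kanamycin versus none.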
Sequence,self-splicing fitness (ln) (30 °C),self-splicing fitness (ln) (37 °C)
UCUGAGCAAUAUUACGUCGU,-3.79 ± 0.29,-1.91 ± 0.25
CCCCAGCAAUAUUACGCCGG,-4.29 ± 0.21,-1.88 ± 0.16
UCCGAGCAAUAUUACGGUUU,-3.42 ± 0.22,-1.02 ± 0.14
CGAGAGCAAUAUUACGUGAG,-1.51 ± 0.18,-1.75 ± 0.48
GCUAAGCAAUAUUACGGUUG,-2.99 ± 0.092,-2.42 ± 0.098
AAACAGCAAUAUUACGGAGG,-4.68 ± 0.36,-1.86 ± 0.2
CAGUAGCAAUAUUACGGAAA,-3.56 ± 0.47,-3.19 ± 0.4
GGGCAGCAAUAUUACGUAGA,-1.53 ± 0.063,-0.244 ± 0.083
UGACAGCAAUAUUACGGUCC,-0.746 ± 0.18,-0.15 ± 0.23
GGGCAGCAAUAUUACGCUCG,-0.812 ± 0.11,-1.24 ± 0.14
AAAAAGCAAUAUUACGACGG,-1.76 ± 0.17,-1.12 ± 0.21
CCCGAGCAAUAUUACGAGCA,-2.24 ± 0.27,-2.04 ± 0.25
AUGAAGCAAUAUUACGCGUU,-2.78 ± 0.12,-0.429 ± 0.093
GGCCAGCAAUAUUACGAGUC,-2.16 ± 0.14,-1.24 ± 0.14
GAGAAGCAAUAUUACGCGAU,-2.81 ± 0.27,-2.48 ± 0.33
UGACAGCAAUAUUACGCUCC,-1.28 ± 0.13,-0.275 ± 0.14
CGUGAGCAAUAUUACGCGUG,-2 ± 0.13,-0.684 ± 0.1
CGCUAGCAAUAUUACGAGAG,-3.41 ± 0.24,-2.81 ± 0.38
CCGCAGCAAUAUUACGAAGA,-2.83 ± 0.26,-2.57 ± 0.24
CCCUAGCAAUAUUACGAACG,-3 ± 0.21,-2.59 ± 0.29

Sequence,self-splicing fitness (ln) (30 °C),self-splicing fitness (ln) (37 °C)
CUGCAGCAAUAUUACGUACC,-3.22 ± 0.19,-2.68 ± 0.44
UGUAAGCAAUAUUACGCGUG,-0.994 ± 0.066,0.0779 ± 0.079
AUCAAGCAAUAUUACGGAGG,-2.43 ± 0.096,-1.36 ± 0.13
CCCUAGCAAUAUUACGCGCG,-3.46 ± 0.16,-3.35 ± 0.27
GCGGAGCAAUAUUACGGUGG,-3.54 ± 0.35,-2.27 ± 0.39
GUUCAGCAAUAUUACGAGAU,-2.51 ± 0.16,-0.359 ± 0.12
UCUAAGCAAUAUUACGCUAG,-2.73 ± 0.16,-2.89 ± 0.26
AAUAAGCAAUAUUACGCAUC,-2.56 ± 0.12,-1.66 ± 0.15
GCAGAGCAAUAUUACGCAUU,-3.11 ± 0.16,-2.3 ± 0.2
UUUCAGCAAUAUUACGUACA,-0.836 ± 0.11,-0.465 ± 0.11
CCAAAGCAAUAUUACGACUA,-2.34 ± 0.23,-2.7 ± 0.29
UGUCAGCAAUAUUACGGCUG,-2.9 ± 0.18,-0.843 ± 0.18
CCUCAGCAAUAUUACGUCAU,-3.03 ± 0.13,-1.77 ± 0.18
GGUUAGCAAUAUUACGGUUU,-0.608 ± 0.086,-0.0158 ± 0.11
AUUUAGCAAUAUUACGAGAU,-3.55 ± 0.4,-1.41 ± 0.28
UAUGAGCAAUAUUACGUGCC,-4.14 ± 0.46,-2.28 ± 0.31
UGGAAGCAAUAUUACGAAGA,-2.23 ± 0.28,-1.01 ± 0.28
UAGCAGCAAUAUUACGGAUG,-1.19 ± 0.073,-0.912 ± 0.079
CUGUAGCAAUAUUACGGUCU,-3.53 ± 0.14,-2.96 ± 0.21
CUAGAGCAAUAUUACGAUGU,-3.45 ± 0.3,-2.2 ± 0.31

Sequence,self-splicing fitness (ln) (30 °C),self-splicing fitness (ln) (37 °C)
CGCAAGCAAUAUUACGUUGC,-3.41 ± 0.17,-3.62 ± 0.29
UAAAAGCAAUAUUACGUGGU,-3.53 ± 0.13,-2.28 ± 0.14
AGCAAGCAAUAUUACGAGAU,-3.64 ± 0.24,-1.27 ± 0.21
ACAUAGCAAUAUUACGUCCU,-0.372 ± 0.11,-0.297 ± 0.12
GGCCAGCAAUAUUACGGCAG,-0.833 ± 0.058,-0.191 ± 0.1
AAGCAGCAAUAUUACGGAGG,-3.79 ± 0.19,-2.53 ± 0.21
UGCUAGCAAUAUUACGCGGU,-4.3 ± 0.42,-2.36 ± 0.31
GGAGAGCAAUAUUACGGGAU,-4.2 ± 0.36,-3.23 ± 0.35
AUCCAGCAAUAUUACGCCCC,-0.216 ± 0.11,0.691 ± 0.19
CUAAAGCAAUAUUACGUCUU,-3.95 ± 0.22,-3.24 ± 0.3
CCGUAGCAAUAUUACGCAAU,-3.31 ± 0.24,-2.05 ± 0.22
UUAUAGCAAUAUUACGAGAU,-3.27 ± 0.31,-3.38 ± 0.39
UUAGAGCAAUAUUACGUCGG,-1.11 ± 0.12,-0.455 ± 0.14
UGCGAGCAAUAUUACGGAAG,–,-2.26 ± 0.34
GCGGAGCAAUAUUACGAGCA,–,-0.82 ± 0.4
GAAGAGCAAUAUUACGCUCA,–,-1.33 ± 0.48
UGCCAGCAAUAUUACGUUUG,-2.35 ± 0.092,-0.857 ± 0.12
ACGCAGCAAUAUUACGUAAC,-3.99 ± 0.22,-2.37 ± 0.23
UGACAGCAAUAUUACGUCUG,-0.69 ± 0.072,-0.119 ± 0.093
AGUUAGCAAUAUUACGGACC,-0.357 ± 0.11,-0.279 ± 0.16
